Experimental findings from article PMC12283126, “The Pseudomonas aeruginosa Type VI secretion system toxin Tse8 evolved from a novel N-carbamoylputrescine amidohydrolase” (Biochemical Journal, 2025) are described below.

Holding throughout (test): ammonia release, indophenol blue, OD640; Michaelis-Menten fit
Holding throughout (settings): 50 mM MES-NaOH pH 7.0, 1 mM DTT, 40 °C, 30 min, 10 nM enzyme

Substrate in series [1]: NCCCCNC(N)=O
The class given is biochemical, Shewanella oneidensis. The text has this:
ammonia release, indophenol blue, OD640; Michaelis-Menten fit on Shewanella oneidensis AguY (SoAguY)

Substrate in series [2]: NCCCCNC(N)=O
The series is classed as biochemical, Microterricola gilva. The text has this: ammonia release, indophenol blue, OD640; Michaelis-Menten fit on Microterricola gilva AguY (MgAguY)

Substrate in series [3]: NCCCCNC(N)=O
The class given is biochemical, Pseudomonas aeruginosa. The text has this: ammonia release, indophenol blue, OD640; Michaelis-Menten fit on P. aeruginosa NCPAH/AguB (PaAguB)

B1: Shewanella oneidensis AguY (SoAguY) (Shewanella oneidensis MR-1) (protein)
chain: MFEVTEVSIAELRAALESGRTTVVELVKSYLARVAAYDGPATETKLNALVVHNPDALKEAEASDARRARGETLSPLDGIPYTAKDSYLVKGLTAASGSPAFKDLVAQYDAFAVERLRAAGAICLGKTNMPPMANGGMQRGHYGRAESPYNAEYLTAPFASGSSNGAGTGTAASYSAFGLAEETWSSGRGPASNNGLCAYTPSRGVISVRGNWPLTPTMDVVVPYTRTMADMLEVLDVIVADDPITRGDLWRLQPWVQIPKASTVRPESYLALAASADTLKGKRFGVPRMYINKDELAGTSENPGIGGPTGQRIHTRQSVIDLWEAARKALEAAGAEVIEVDFPLVSNCEGDRPGAPTVFNRGIVTPQFLHDELWELSGWAFDEFLRANNDPKLNKLEDVVGHLIFPHDLCTLPNREGDLAAGMEEYVNMAKRGLKSFDQIDSIPDGLRGLEKTRKLDLEDWMDGLKLDAVLFPTVADVGPADAHVNPASADIAWSNGVWVANGNLAIRHLGVPTVTVPMGVMADIGMPVGLTFAGRAYDDNNLLKFAGAFESTGNRRIIPPRTPKLGQ
notes: full length, 568 aa, 60,996 Da; purified recombinant, codon-optimised synthetic gene, expressed in E. coli
Consider B1, for which, in series [1], the Km is 0.74 ± 0.13 mM, the turnover number (kcat) was determined as 130 ± 4.5 s⁻¹ and the catalytic efficiency (kcat/Km) was determined as 179000 ± 28600 M⁻¹ s⁻¹.

B2: Microterricola gilva AguY (MgAguY) (Microterricola gilva) (protein)
chain: MTSPTVGKGGIVEAGIDELAAALAAGETSAVALLDAYLARIRAFDAPGTATALNAYVVMNPDARADAEASDARRARGESRGPLDGIPYSAKDSYLAAGLTAAAGSPAFTALIAQQDAFTIERLRTAGAVLIGLTNMPPMANGGMQRGAYGRAESPYNAAWLTAAFGSGSSNGSGTATAASMCAFGLGEETWSSGRAPASNNALCAYTPSRGIISMRGNWPLVPTMDVVVPHTRTMADLLRVLDVIVAEDGDTRGDFWRSQPWLEIPRVDEHRPASYPSLAPTDLAAAQATLRGTRLGVPRMYINGDQDAGTGEPGGIGGPTGQRIETRASVIELWEAARRDLEAAGATVVEVDFPLVSNYEGDRAGAPTITNRGLVSPEFLHTELNDLAAWAWNDFLEMNGDPRLSSLAAVDGERIFPAPPGSLPDRYQGFDDDIADLPRIAAERHWASVEEIEELADGIRGLEHTRAIDFDAWMASNRLDAVVFPAVADVGPADMDVNEASADAGWRNGVWVANGNLVIRHFGIPTVTVPMGLMRDIRMPVGLTFAGLPYDDVALLRLAAAFERTAERRVAPPLSAPPARAHR
notes: full length, 584 aa, 61,738 Da; purified recombinant, codon-optimised synthetic gene, expressed in E. coli; genome has a second AguY paralog
As to B2, in series [2], the Km is 0.07 ± 0.3 mM, the turnover number (kcat) was 39 ± 1.5 s⁻¹ and the catalytic efficiency (kcat/Km) was found to be 642000 ± 251000 M⁻¹ s⁻¹.

B3: P. aeruginosa NCPAH/AguB (PaAguB) (Pseudomonas aeruginosa PAO1) (protein)
chain: MTRNVTVAATQMACSWDRPANIARAEKLVRQAAARGAQIILIQELFETPYFCQKPNPDYLQLATTVEENAAIAHFQALARELQVVLPISFFERAGRARFNSIAVIDADGGNLGVYRKSHIPDGPGYHEKYYFNPGDTGFKVWQTRYARIGVGICWDQWFPESARSMALLGAELLFYPTAIGSEPHDASISSRDHWQRVQQGHAGANLMPLVASNRIGREEQDGYDITFYGSSFIADPFGEKVEELNRTEEGILVHTFDLDALERTRSAWGVFRDRRPNLYGPLKTLDGSLES
notes: full length, 292 aa, 32,780 Da; purified recombinant, codon-optimised synthetic gene, expressed in E. coli
Regarding B3, in series [3], the Km was 0.66 ± 0.11 mM, the kcat was determined as 54.1 ± 3 s⁻¹ and the kcat/Km was determined as 82500 ± 8800 M⁻¹ s⁻¹.

Usually Km stands for the substrate concentration at which the rate is half of its maximum. As a reminder, the kcat is the maximal rate divided by the concentration of active sites. In general, kcat/Km refers to the second-order rate constant that governs catalysis at low substrate concentration.
